Data: the PETadex activity labels (doi:10.1093/ismejo/wraf068)

B1: unnamed (protein)
chain: QVYEIGHTTITFNDPSRSRDIETEIYYPADVAGENVAVSTGTFPVCVFGHGFTMSVDAYENFSDVLVPQGYIILLPSTEDGFSPNHDEFGLDLAFLVDEFQLENTNGTSLFYGAIAPETALMGHSMGGGCSFLAAESNSSVTTLVNFAAAETNTSAIAAAANITIPAVVFSGEVDPVAPPADHQIPMYNALASECKTYISINDGGHCYFANYNFYCTMGEEAMMPGGPPLTREEQQQTTLDFLSIWLDYTLKGNANALTVFNDSLASSPRITYQQDCNLTILDQINPNAEFKVYPNPADQFFILESSREIKHVLIYNSMGSICLERNKRHRIDISELPEGMYVIKAITESGSFTKKIMVLH
B2: unnamed (protein)
chain: CTDNADTDGADGAEGSATEEGGTEESGKESGEESKADLAALAAEVEEPGPWAVGTTTVETTGARDRQLPVQVWYPVDTAVAATAEPATYDFPGIEVPAGAVTGASPAPGPFPLVIYSHGNGGLRYVSSFLAEHMASHGFVVMAPDHVGNTALDTFLGSRDETDQVAEDRPVDVQAVIDAATSGQAGLEEVSPVVDGEEVAVIGHSFGGYTALALASRQAEGDDSLDAIVGLAPASSGVDDTTLEAVGVPTLLISGTLDETTPIEEDTLRPAELVSGRPLVRADIDGAGHQSFTDVCDYLGIAESQPDLPAALVEAPQEYALEGCAPELIVIDEAQRITNRLVTAFLLETLYADDSWSPLLSPGAEEGQPLALLERED
B3: unnamed (protein)
chain: MTKVNFQNKEEKRIVGILSIPKGKGPYPAVIFCHGLGSSKESPLIKTVSKKVRQVGFATFTFDCLGSRESDPYHSTAGITKRLSDLDAAIDFLAKHPRVDAERMGLYGHSLGGSVALVQASRDKRIKTAVLISPVIDFRRTGLRPINKKHMDEWDKREEILTINRKNKIVFRIPWDFFVDITSYDFVDIARKVACPVMIIHGTQDSLVPIQQSQILCQNLKNSELISLPWQKHFTRTTRKRKEAIVNSIFWFNKYLKKSATPSN
B4: unnamed (protein)
chain: SRTRQILTEIYYPADTAGEEVPVAEPGAEGFPAVSFAHGRRMAWSAYSNFWEMLAPQGYIIVFPCTEMGLSPNHLDFALDCLFDAHKLQELNDLGTSIFYQKVGDTFAVTGHSMGGVVSFIAAIEDPTVTAIANFACGQASSYDLASVTAPALIFAGSDDYMTPVDQYQLLFYNELSSTCKALLILQGANHCQYAQYTSVCDDIEDQYPDPALTRTQQHAVTSTLLIPWLDYMLKGDEEAWTEFNVLAGDGDVTETHMICDLPFNTPTPASPPTPFVPATSSGGIGTLIVVISGTLALLSSRRK
B5: unnamed (protein)
chain: CGSDDDSAPGSPAGNEPFYAPDELGPFAVGRSTFTIVDADRGDRELPVDVWYPVDPEEATGAPSLYQVSILVWIFPLVFTTPSEVALDSPPVSEARRFPLIVFSHGSGGLRYQSFFLTEILASHGFVVVAPSHVGNTLLDEINGTFAPLTDMMVARPLDVSYLITRMLEKNEDAADPLYGTIDADRIGVCGHSFGGFTSLAMAAGFGADPPPDLDPEIPEDLEPVPPDPRVDAIVPIAPASSWFGDSELAGIDVPTLIIGGTLDTTTPIATENVRPYEMIPAPVFRADLDGAVHFSFSNSCDLIQGMREKGIPQALIDALLGAEFTAPCNPPSLDVEEAHRITNLYTVSLFETFLEDDSRYEKYLTEAYAEASEPNVTFYANPD
B6: unnamed (protein)
chain: APAGPYNVGYVIYDFPFVSPDGALQSLTTAVWYPTDAEPTPYTYGDGRATGLVSLDGPVSPAGRPFPLVVFSHGYGGGGTANLFLTKHLASWGFVVASPDYPDPDQMVRIRGGGTNTPILQYLRNALRLARTGLDFPFDDYAFRPAGLRTVIDQMLAQNADDTSALHGAIDPDRIAVAGHSLGTFTALSVAGLDPQWTDPRIRAVLALSGGVFMWPTQDFAQVSVPIMFMYGEREAGQRERIGLADVAALTRAAYDVCQPPKFMLEVKGGTHFTFGQRVYEERRAGGDASLPERQVAVINSYAAAFLRLYLRNDTSAAATLQQTDPMLTLYRHDM
B7: unnamed (protein)
chain: WGAQNHFYETVLVDTDENPRETHLVGQIDGVFTDENYGEYEVTIYYPAINSGVSQPPDKSGAPYPAIIFAHGWLTSKELYTWIGNYCAAQGYVTLLFSVPDPTSLEAFRQSVTGITKSIDYLLVQNQGGLLSGLINTSRIGVMGHSMGAMAVLIATTEDSRIKAAVSLAPGYFGSTTKKYVEACKSIRVPIQFQAGSLDKICPPSAVETYYNAVRIPPKEIIVINGADHIQFSDAPATLWANITLEEQHETSRKYFIAWFNYYLRDDFNYYAYLFGSEARKDMENGILSSLEYVERFDC
B8: unnamed (protein)
chain: QSYEMGHRSEIYIDPSRGDRAIPTEIYYPSLTAGDDVPVADPPTGGFPVVAFAHGRMMPWDDYENIWGALAPQGFVVACPTTETGFMPNRTNFSLDLIYVISRIRLENSSATSPFYGKIGNASAVIGHSFGGVATFMAAIESDSITAIVTFASGQIDSVELAGISEPALIFAGTDDSLTPAATFQIPYYNNLGSSCKTLVNIIGGTHCHFAESSYYCDIGEAGFPPPGITRERQHELTNQFLIPWLDFMLNTDPVASDSFQTLLTTSGDILYLQDCDIMGVSRDDPTDLPGIIDLLAYPNPFNSAVRIGVERGEWRVENREIFDITGRMVAEIPAQSVIPDPDRESRGVVEGLDSRFHG
B9: unnamed (protein)
chain: CGGGRVTPPDSPGEQMQAELAETLPEGGGREGRESDVAEVDREGESLDQGMDAEQTLPDAIGLTEEVGESGALYEAEGEAETIDGCDLADQGGEIEAWETLPPADVQQDEQLAAGTGDPFEWGPYEIGKKDYDFYDIQRMRLVPTTVWYPALPSGQSKAKYLLVVQGKAYVEPPAEPSGAPYPLVLFSHGYGGTRFQSVSYTEYLASHGYVVAAMDHIGNTFLDFFSDDAKVAQIALERPKDVRFVYQELVKLSNSGDGVMGGMVDQDRVAVTGHSFGGYTALVVAGAEIDVSEAIAACQSGAVSDIFCAYVEYWPAGEVIKLDPPIPGVQAAIYLAPGGYSAFGDQGLAAVKVPSMIFGGTLDDTCSVAVEIEPIYQALPPPKIEVLIQNGGHMSFTNLCDLPFAQFYLDKYCDVEGMIPAQQAFAVTNGLSVAFLDLYLKGVDAAAQYLTQEAVDEEFGYVELKAE
B10: unnamed (protein)
chain: MSRAFSFASVAALLVFFAASIWLARLDKGGPPHTELMLEGEVPATLYLPGDGEHREAFLDAPPRDERPPAVVMMHGFSGDRLSMSGISRRLAESGYAVLNIDARGHGQNRNPFSSSWAAPDLFYPDLLAAVEFLRAYPFVDGSRIAVMGHSMGAGASLDYASRDSAIGAAVLVSGGWRIQGPHRPPNTLFLYATGDPERIRGRSRQLAAGLAGVNDPEVGRTYGDPTRGDAVRLAEVAGADHQTIVWREAAVRETVAWLDATFGVARSPGPVPDDPRAPLLPLIWAAFLLVMVGLGQVVGRLVPAQPYRPGGGRIAGLAAIAAAFALTMPLLALGTPGFILSMEVGDVFVSHFALAGIVLLVAIRMREPELIDSLFAPRLLPTLIGAAVGTIGVFTLMRVFEPVMHRLTLTPERFLVFVMAALGLLPLALAFNLLLRRGTTAGATLTSLAGRVLVLLVLFAGVQVGILSMVMLFMLPALGFVCLQFEVLAAAIYASSRNLLALSLIDAAWLAMVIAAIMPIRI
B11: unnamed (protein)
chain: CGKDGGIMTQDVEFTSDDGVLLKGTLYLPAGISEKLPGVTLAHMNMNDRTSWAYYAEKLALEGYVVLAFDLRGWGESGGESDFHEMYRDVMAAVTYLANFGKVDRNRIASAGASMGGMASVIAASRTSSIKAVATVSSPPAWSESEPVKVIGKLPPRPVLVIAGSSDPHLDLRAARMLFLAAKEPRQWLEIKTNKHGTDIFATPQGVELERALAMFFAENLKDSGRSSTTEKDGK
B12: unnamed (protein)
chain: QSYQIGHTSIIYYDANRSNREIPTEIYYPAENEGDNVPVADPYSDGFPVISFGHGRMTTWSAYENIWSVLVQEGYIVAFACTEMSFIPNHTEFGLDIAFLVNRIQAEGIDSTSLFHGKIGTTSAVMGHSMGGATCFLSAQGNETITAITSFVSGNTSPSPIDAAVDITIPALLFSGSDDYMTPAEEYQIPIYEALNSDCKTLISITGGNHCQFAEYDYYCDTMEDNYPEPALTREEQHEVTNRFFISWVNFNLKGDFGAWYEFEDSLMTSEAITYMHDCDVTSVLEEPSETNIFMEYGLSNHPNPFNLTTTIKYELPKSAHISLKIYNISSKLIKTLVDEKENTGYNSVIWDGKDENGNPVPSGIYLYNIEIDGRVFSETKRMILLK

How the values were obtained:
BHET = experiment: Proxy for plastic degradation [HPLC-UV] (mmol); conditions: pH 8
PET = experiment: Proxy for plastic degradation [HPLC-UV] (mmol)

Row | Protein | Proxy for plastic degradation (BHET) | Proxy for plastic degradation (PET; pH 8, 30 °C) | Proxy for plastic degradation (PET; pH 8, 60 °C) | other results
1 | B1 | 0 | 0 | 0 | –
2 | B2 | 0 | 0 | 0 | –
3 | B3 | 0.1 | 0 | 0 | –
4 | B4 | 0 | 0 | 0 | –
5 | B5 | 0 | 0 | 0 | –
6 | B6 | 0 | 0 | 0 | –
7 | B7 | 0 | 0 | – | Proxy for plastic degradation (PET; pH 6): 0.11; Proxy for plastic degradation (PET; pH 6.5): 0.96; Proxy for plastic degradation (PET; pH 7): 0.47; Proxy for plastic degradation (PET; pH 7.5): 0.4; Proxy for plastic degradation (PET; pH 8, 40 °C): 0.39; Proxy for plastic degradation (PET; pH 8, 50 °C): 2.78; Proxy for plastic degradation (PET; pH 8, 70 °C): 0.05; Proxy for plastic degradation (PET; pH 8, 80 °C): 0.04
8 | B8 | 0 | 0 | 0 | –
9 | B9 | 0.05 | 0 | 0 | –
10 | B10 | 0 | 0 | 0 | –
11 | B11 | 0 | 0 | 0 | –
12 | B12 | – | 0 | 0 | –
